Laboratory results: patent publication US20250171562A1

What follows are binders tested against mixture of three Der p 2 specific recombinant human IgE clones H10, H12, P4E (human) (UniProt P01854) (assay: RBL-SX38 IgE displacement, FACS).
Sequence of mixture of three Der p 2 specific recombinant human IgE clones H10, H12, P4E (human) (P01854 other isoform, or with tags, fused parts or gaps): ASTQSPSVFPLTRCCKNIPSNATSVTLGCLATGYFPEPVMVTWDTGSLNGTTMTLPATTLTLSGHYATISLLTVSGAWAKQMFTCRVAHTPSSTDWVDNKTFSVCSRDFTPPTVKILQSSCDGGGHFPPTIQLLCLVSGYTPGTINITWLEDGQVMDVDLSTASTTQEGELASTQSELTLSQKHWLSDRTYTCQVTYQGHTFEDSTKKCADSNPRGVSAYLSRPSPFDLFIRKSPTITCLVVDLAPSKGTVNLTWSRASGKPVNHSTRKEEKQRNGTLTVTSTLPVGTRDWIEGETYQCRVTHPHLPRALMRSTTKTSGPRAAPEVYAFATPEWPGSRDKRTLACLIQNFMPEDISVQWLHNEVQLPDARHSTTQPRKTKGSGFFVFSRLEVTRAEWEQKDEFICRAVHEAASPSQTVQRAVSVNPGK

Row | EC50 [nM] | Max effect/effect 1 µM [%] | Binder
1 | 2 | 95 | NIgG4F3A1(G4S)2 (Fc fusion) chain 1: DVQLQESGGGLVQAGGSLKLSCAASRGSLSRWDVAWFRQAPGKERSFVTRISWSGTTSYYADAVKGRFAISRDNAKNTVYLQMNSLKPEDTAVYYCAVALYGNRGYYDVNAHSYWGQGTQVTVSGGGGSGGGGSGPPCPPCPAPEFLGGPSVFLFPPKPKDTLMISRTPEVTCVVVDVSQEDPEVQFNWYVDGVEVHNAKTKPREEQFNSTYRVVSVLTVLHQDWLNGKEYKCKVSNKGLPSSIEKTISKAKGQPREPQVYTLPPCQEEMTKNQVSLWCLVKGFYPSDIAVEWESNGQPENNYKTTPPVLDSDGSFFLYSRLTVDKSRWQEGNVFSCSVMHEALHNHYTQKSLSLSLGK chain 2: EVQLLESGGGLVQPGGSLRLSCAASGFTFGNYDMAWVRQAPGKRPEWVSSIDTGGDITHYADSVKGRFTISRDNAKNTLYLQMNSLRPEDTAVYWCATDEEYALGPNEFDYYGQGTLVTVSSGGGGSGGGGSGPPCPPCPAPEFLGGPSVFLFPPKPKDTLMISRTPEVTCVVVDVSQEDPEVQFNWYVDGVEVHNAKTKPREEQFNSTYRVVSVLTVLHQDWLNGKEYKCKVSNKGLPSSIEKTISKAKGQPREPQVCTLPPSQEEMTKNQVSLSCAVKGFYPSDIAVEWESNGQPENNYKTTPPVLDSDGSFFLVSRLTVDKSRWQEGNVFSCSVMHEALHNHYTQKSLSLSLGK
2 | 2 | 93 | NIgG4F3A1(G4S)1 (Fc fusion) chain 1: DVQLQESGGGLVQAGGSLKLSCAASRGSLSRWDVAWFRQAPGKERSFVTRISWSGTTSYYADAVKGRFAISRDNAKNTVYLQMNSLKPEDTAVYYCAVALYGNRGYYDVNAHSYWGQGTQVTVSGGGGSGPPCPPCPAPEFLGGPSVFLFPPKPKDTLMISRTPEVTCVVVDVSQEDPEVQFNWYVDGVEVHNAKTKPREEQFNSTYRVVSVLTVLHQDWLNGKEYKCKVSNKGLPSSIEKTISKAKGQPREPQVYTLPPCQEEMTKNQVSLWCLVKGFYPSDIAVEWESNGQPENNYKTTPPVLDSDGSFFLYSRLTVDKSRWQEGNVFSCSVMHEALHNHYTQKSLSLSLGK chain 2: EVQLLESGGGLVQPGGSLRLSCAASGFTFGNYDMAWVRQAPGKRPEWVSSIDTGGDITHYADSVKGRFTISRDNAKNTLYLQMNSLRPEDTAVYWCATDEEYALGPNEFDYYGQGTLVTVSSGGGGSGPPCPPCPAPEFLGGPSVFLFPPKPKDTLMISRTPEVTCVVVDVSQEDPEVQFNWYVDGVEVHNAKTKPREEQFNSTYRVVSVLTVLHQDWLNGKEYKCKVSNKGLPSSIEKTISKAKGQPREPQVCTLPPSQEEMTKNQVSLSCAVKGFYPSDIAVEWESNGQPENNYKTTPPVLDSDGSFFLVSRLTVDKSRWQEGNVFSCSVMHEALHNHYTQKSLSLSLGK
3 | 2 | 93 | NIgG4F3A1(RS) (Fc fusion) chain 1: DVQLQESGGGLVQAGGSLKLSCAASRGSLSRWDVAWFRQAPGKERSFVTRISWSGTTSYYADAVKGRFAISRDNAKNTVYLQMNSLKPEDTAVYYCAVALYGNRGYYDVNAHSYWGQGTQVTVSRSGPPCPPCPAPEFLGGPSVFLFPPKPKDTLMISRTPEVTCVVVDVSQEDPEVQFNWYVDGVEVHNAKTKPREEQFNSTYRVVSVLTVLHQDWLNGKEYKCKVSNKGLPSSIEKTISKAKGQPREPQVYTLPPCQEEMTKNQVSLWCLVKGFYPSDIAVEWESNGQPENNYKTTPPVLDSDGSFFLYSRLTVDKSRWQEGNVFSCSVMHEALHNHYTQKSLSLSLGK chain 2: EVQLLESGGGLVQPGGSLRLSCAASGFTFGNYDMAWVRQAPGKRPEWVSSIDTGGDITHYADSVKGRFTISRDNAKNTLYLQMNSLRPEDTAVYWCATDEEYALGPNEFDYYGQGTLVTVSSRSGPPCPPCPAPEFLGGPSVFLFPPKPKDTLMISRTPEVTCVVVDVSQEDPEVQFNWYVDGVEVHNAKTKPREEQFNSTYRVVSVLTVLHQDWLNGKEYKCKVSNKGLPSSIEKTISKAKGQPREPQVCTLPPSQEEMTKNQVSLSCAVKGFYPSDIAVEWESNGQPENNYKTTPPVLDSDGSFFLVSRLTVDKSRWQEGNVFSCSVMHEALHNHYTQKSLSLSLGK
